From US8663912B2, “Fluorogenic substrate for ADAMTS13” (Washington University, priority 2011, dated 2014)

Biological target: T1, ADAMTS13 (Homo sapiens, UniProt Q76LX8)
T1 sequence (Q76LX8 75-1427): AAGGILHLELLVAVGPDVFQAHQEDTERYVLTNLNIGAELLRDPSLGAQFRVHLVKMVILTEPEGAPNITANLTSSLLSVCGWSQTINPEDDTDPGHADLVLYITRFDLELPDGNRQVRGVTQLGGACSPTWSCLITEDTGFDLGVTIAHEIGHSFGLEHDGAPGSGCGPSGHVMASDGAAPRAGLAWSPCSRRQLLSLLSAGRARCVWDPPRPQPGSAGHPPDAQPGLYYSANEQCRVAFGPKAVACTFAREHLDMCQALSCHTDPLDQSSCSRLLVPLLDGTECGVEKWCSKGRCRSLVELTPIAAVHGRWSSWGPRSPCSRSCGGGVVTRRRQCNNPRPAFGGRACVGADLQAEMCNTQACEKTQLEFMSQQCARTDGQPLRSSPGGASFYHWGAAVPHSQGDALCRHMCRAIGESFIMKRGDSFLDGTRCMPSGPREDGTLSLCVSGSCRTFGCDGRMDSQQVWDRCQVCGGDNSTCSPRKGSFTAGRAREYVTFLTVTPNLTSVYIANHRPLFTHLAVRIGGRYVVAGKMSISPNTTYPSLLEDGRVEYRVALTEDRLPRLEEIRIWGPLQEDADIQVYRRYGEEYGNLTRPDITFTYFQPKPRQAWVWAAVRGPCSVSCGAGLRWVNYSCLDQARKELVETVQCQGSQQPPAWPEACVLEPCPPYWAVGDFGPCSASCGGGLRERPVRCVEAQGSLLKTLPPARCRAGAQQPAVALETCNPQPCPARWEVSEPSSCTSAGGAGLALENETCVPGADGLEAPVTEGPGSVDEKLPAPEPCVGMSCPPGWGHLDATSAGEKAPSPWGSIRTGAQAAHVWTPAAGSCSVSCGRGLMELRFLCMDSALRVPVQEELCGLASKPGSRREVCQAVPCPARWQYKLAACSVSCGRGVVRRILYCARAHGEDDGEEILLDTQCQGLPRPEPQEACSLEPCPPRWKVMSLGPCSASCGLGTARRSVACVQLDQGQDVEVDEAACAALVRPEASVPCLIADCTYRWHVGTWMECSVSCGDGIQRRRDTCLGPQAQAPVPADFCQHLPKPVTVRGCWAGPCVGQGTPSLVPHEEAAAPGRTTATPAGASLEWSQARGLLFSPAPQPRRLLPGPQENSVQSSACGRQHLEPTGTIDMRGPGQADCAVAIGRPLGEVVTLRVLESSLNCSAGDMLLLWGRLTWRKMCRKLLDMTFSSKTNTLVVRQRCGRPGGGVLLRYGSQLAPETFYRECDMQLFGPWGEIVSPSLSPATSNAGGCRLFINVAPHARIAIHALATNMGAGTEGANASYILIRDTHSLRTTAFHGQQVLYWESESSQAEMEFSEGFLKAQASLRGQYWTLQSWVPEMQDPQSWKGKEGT
Test: Effect of bilirubin and hemoglobin on FRETS-rVWF71 ADAMTS13 assays
Type: biochemical
Set-up: FRETS-rVWF71 cleavage by plasma ADAMTS13 (50 μL) was assessed in 200 μL reactions; from tissue; host or cells: human plasma or serum (pooled normal plasma, healthy donors, TTP patients)

## hemoglobin
FRETS-rVWF71 substrate
  IC50 for inhibition of ADAMTS13 activity: 10-15 g/L
Hemoglobin ≦20 g/L
  effect on detection of FRETS-rVWF71 cleavage products: did not affect
